# Measurements: paper PMC7255924
# Target: P1 adhesin (AgI/II, SpaP, PAc) A3VP1 polypeptide (UniProt P23504)
# Assay: ITC
# Conditions: pH 5; 25°C; 100 mM NaCl; pH 5: 10 mM MES; pH 6: 50 mM sodium phosphate
substance,measurement,value
"P1 adhesin (AgI/II, SpaP, PAc) C3 domain",KD,35.2 ± 7.0 µM
